Results: PMC9033776 (2022)
Where no end group is shown, it is not given here.

How the values were obtained:
Experiment in all cases: ITC
[1] = biological target: BRD3_(bromo1) (amino acids 24–144) (UniProt Q15059 24-144)
[2] = biological target: BRD3_(bromo2) domain (amino acids 306–416) (UniProt Q15059 306-416)
[3] = biological target: BRD2_(bromo1) (amino acids 73–194) (UniProt P25440 73-194)
[4] = biological target: BRD2_(bromo2) domain (amino acids 455–347) (UniProt P25440 347-455)
[5] = biological target: Bromo1-linker(GGS)5-Bromo2 of BRD4 (UniProt O60885 54-168; O60885 351-457)

Sequence of BRD3_(bromo1) (amino acids 24–144) (Q15059 24-144): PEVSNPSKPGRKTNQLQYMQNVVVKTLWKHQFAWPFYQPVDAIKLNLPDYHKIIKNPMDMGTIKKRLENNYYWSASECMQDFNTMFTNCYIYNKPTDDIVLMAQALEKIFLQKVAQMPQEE
Sequence of BRD3_(bromo2) domain (amino acids 306–416) (Q15059 306-416): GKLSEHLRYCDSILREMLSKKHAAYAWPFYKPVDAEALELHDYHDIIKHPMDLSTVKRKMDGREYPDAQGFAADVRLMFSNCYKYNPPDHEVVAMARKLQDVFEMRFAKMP
Sequence of BRD2_(bromo1) (amino acids 73–194) (P25440 73-194): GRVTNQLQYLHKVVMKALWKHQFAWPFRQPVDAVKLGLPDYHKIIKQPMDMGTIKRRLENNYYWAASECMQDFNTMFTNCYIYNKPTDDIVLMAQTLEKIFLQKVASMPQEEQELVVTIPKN
Sequence of BRD2_(bromo2) domain (amino acids 455–347) (P25440 347-455): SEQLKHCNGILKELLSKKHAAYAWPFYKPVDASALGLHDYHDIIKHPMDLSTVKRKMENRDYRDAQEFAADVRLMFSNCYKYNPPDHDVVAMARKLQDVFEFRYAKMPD

| Binder | Kd [1] [mM] | Kd [2] [mM] | Kd [3] [mM] | Kd [4] [mM] | Kd [5] [mM] |
| --- | --- | --- | --- | --- | --- |
| AGGK(Ac)AGK(Ac)DSGK(Ac)AKTK [tri-acetylated H2A.Z (1–15) K4acK7acK11ac peptide] | 1.5 | 1.8 | 2.6 | 2 | – |
| AGGK(Ac)AGK(Ac)DSGK(Ac)AKTKC (also: cross-linked via C-terminal cysteine) [H2A.ZK4ac7ac11ac peptides cross-linked by a C-terminal cysteine] | – | – | – | – | 0.35 |
